The source of these data is paper PMC7810988, “Inositol pyrophosphates promote the interaction of SPX domains with the coiled-coil motif of PHR transcription factors to regulate plant phosphate homeostasis”.

For data set [1], the target named is AtPHR1 MYB-CC Olig2 (Arabidopsis thaliana, UniProt Q94CL7 222-358, L317N;L327N;I341N). Put plainly: GCI; 4 C, 300 mM NaCl; GCI at 4 C: AtPHR1 in 20 mM HEPES pH 7.5, 300 mM NaCl; OsPHR2 in 20 mM HEPES pH 7.9, 200 mM NaCl. EMSA: LI-COR Odyssey kit buffer without optional components, 50 nM oligo, 30 min at room temperature, 5% TBE gel in 0.5x TBE. The conditions noted are these: protein: recombinant; tags: His6 N-terminal, TEV-cleaved; label: 5'-biotin on strand 1; blunt. Background: Mobility shift assays separate free from complexed probe on a gel.
Chain of AtPHR1 MYB-CC Olig2 (Q94CL7 222-358 L317N/L327N/I341N): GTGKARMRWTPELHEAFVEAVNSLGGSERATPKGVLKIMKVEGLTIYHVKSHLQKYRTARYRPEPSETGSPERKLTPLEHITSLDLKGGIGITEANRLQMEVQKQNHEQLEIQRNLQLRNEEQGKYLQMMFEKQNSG

The target in data set [2] is AtPHR1 MYB-CC Olig1 (Arabidopsis thaliana, UniProt Q94CL7 222-358, L319N;I333N;L337N). Put plainly: EMSA; indistinguishable from wild type; GCI at 4 C: AtPHR1 in 20 mM HEPES pH 7.5, 300 mM NaCl; OsPHR2 in 20 mM HEPES pH 7.9, 200 mM NaCl. EMSA: LI-COR Odyssey kit buffer without optional components, 50 nM oligo, 30 min at room temperature, 5% TBE gel in 0.5x TBE. The following applies: protein: recombinant; tags: His6 N-terminal, TEV-cleaved; label: 5'-IRD800 on both strands; blunt.
Chain of AtPHR1 MYB-CC Olig1 (Q94CL7 222-358 L319N/I333N/L337N): as the sequence (Q94CL7 222-358 L317N/L327N/I341N) above, with N96L, L98N, N106L, I112N, L116N, N120I counted along it

B1: pAtSPX1 biotin (dsDNA)
DNA 1: CAGAGAAAAAAGGATATTCTAATTAGAAACCTTAAGAATATTCTTTTTAATCCC
DNA 2: GGGATTAAAAAGAATATTCTTAAGGTTTCTAATTAGAATATCCTTTTTTCTCTG
For B1, in data set [1], the binding signal was ~20 fold reduced affinity vs wild type.

B2: IRD800-pAtSPX1 (dsDNA)
DNA 1: B1 DNA 1
DNA 2: B1 DNA 2
For B2, the binding result in data set [2] is listed as “binds”.
